In the data set the target is VDRE-BP (NWP nuclear VDRE binding protein, B95-8 nuclear extract) (UniProt Q9TTV2). As to the kind of experiment: competition. To be noted: 100-fold excess unlabeled competitor.
Chain of VDRE-BP (NWP nuclear VDRE binding protein, B95-8 nuclear extract) (Q9TTV2 whole entry): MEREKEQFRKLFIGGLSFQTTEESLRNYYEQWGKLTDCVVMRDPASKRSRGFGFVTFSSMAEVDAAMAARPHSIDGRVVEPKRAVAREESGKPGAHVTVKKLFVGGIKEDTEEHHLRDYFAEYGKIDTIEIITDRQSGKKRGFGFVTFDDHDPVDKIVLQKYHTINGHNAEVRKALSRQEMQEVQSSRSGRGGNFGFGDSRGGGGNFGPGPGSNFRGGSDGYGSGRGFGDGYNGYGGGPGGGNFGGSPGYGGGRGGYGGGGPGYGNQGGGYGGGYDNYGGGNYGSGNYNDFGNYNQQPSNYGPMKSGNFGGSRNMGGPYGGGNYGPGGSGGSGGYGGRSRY

Turning to GGTTCA direct repeat, 3 bp spacer, the binding signal (% decrease of opVDRE band) was determined as 61. Then AGGTCA direct repeat, 3 bp spacer, with 64.

For the origin of these results see patent publication US5994504.
